In article PMC5679641 (PLoS Pathogens, 2017):
“And” between values parts separate entries of the source, which are not always exact repeats. Identical values can stand only once.

Legend:
[1] = target: RelAp43, Nluc- or YFP-tagged (BRET); assay: FRET or BRET
[2] = target: ABIN2, Nluc- or YFP-tagged (BRET) (human) (UniProt Q8NFZ5); assay: FRET or BRET
[3] = target: TPL2, Nluc- or YFP-tagged (BRET) (human) (UniProt P41279); assay: FRET or BRET
[4] = target: T1, p105, Nluc- or YFP-tagged (BRET) (UniProt P19838 1-968); assay: FRET or BRET; conditions: partners not purified
T1 construct: also called NFκB1(p105/p50)
T1 sequence (looked up): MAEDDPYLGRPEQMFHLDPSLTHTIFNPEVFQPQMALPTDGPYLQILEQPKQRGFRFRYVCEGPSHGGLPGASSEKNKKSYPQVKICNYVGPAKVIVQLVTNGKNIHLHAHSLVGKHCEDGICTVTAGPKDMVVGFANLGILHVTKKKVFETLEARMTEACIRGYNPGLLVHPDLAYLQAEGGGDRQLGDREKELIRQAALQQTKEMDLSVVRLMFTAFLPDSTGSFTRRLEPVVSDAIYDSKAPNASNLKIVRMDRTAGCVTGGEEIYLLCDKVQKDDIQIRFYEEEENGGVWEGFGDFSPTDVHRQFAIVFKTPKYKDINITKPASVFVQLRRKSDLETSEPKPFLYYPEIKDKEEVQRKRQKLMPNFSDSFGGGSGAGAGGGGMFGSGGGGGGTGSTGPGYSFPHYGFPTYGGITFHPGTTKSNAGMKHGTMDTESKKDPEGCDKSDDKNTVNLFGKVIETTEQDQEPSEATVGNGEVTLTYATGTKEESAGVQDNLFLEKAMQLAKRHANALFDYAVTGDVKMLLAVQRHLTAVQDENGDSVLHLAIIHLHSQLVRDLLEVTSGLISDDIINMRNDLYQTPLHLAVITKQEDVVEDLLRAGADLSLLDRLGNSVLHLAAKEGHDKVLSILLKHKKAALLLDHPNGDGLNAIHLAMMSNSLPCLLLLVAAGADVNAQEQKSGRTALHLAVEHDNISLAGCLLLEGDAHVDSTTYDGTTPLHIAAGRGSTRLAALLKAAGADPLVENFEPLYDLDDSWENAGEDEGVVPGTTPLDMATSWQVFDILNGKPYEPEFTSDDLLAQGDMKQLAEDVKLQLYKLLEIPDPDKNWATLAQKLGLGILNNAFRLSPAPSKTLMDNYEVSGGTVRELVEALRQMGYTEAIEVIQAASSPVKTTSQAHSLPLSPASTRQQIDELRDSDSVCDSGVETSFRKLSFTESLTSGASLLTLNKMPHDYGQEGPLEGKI

[5] = target: T2, TPL2, Nluc- or YFP-tagged (BRET) (human, UniProt P41279-1 1-467); assay: FRET or BRET; conditions: partners not purified
T2 construct: also called MAP3K8
T2 sequence (P41279 whole entry): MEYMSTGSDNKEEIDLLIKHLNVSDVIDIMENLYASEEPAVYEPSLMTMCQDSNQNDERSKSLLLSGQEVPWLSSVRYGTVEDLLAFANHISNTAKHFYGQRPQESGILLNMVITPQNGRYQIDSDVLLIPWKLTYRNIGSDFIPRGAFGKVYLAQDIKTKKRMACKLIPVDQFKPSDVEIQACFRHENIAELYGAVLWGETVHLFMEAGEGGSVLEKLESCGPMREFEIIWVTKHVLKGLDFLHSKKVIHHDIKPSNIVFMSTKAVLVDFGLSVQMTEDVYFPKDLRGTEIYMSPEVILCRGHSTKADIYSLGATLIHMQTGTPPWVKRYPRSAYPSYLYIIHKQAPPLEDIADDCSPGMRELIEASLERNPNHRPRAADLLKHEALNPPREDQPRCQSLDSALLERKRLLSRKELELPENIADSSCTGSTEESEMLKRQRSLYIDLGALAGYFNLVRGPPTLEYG

[6] = target: TPL2, Glu1- or Glu2-tagged (PCA) (human, UniProt P41279-1 1-467); assay: split reporter (BiFC, NanoBiT); conditions: partners not purified
Sequence of TPL2, Glu1- or Glu2-tagged (PCA) (P41279 whole entry): as above

Sequence of RelAp43, Nluc- or YFP-tagged (BRET) (Q04206 whole entry): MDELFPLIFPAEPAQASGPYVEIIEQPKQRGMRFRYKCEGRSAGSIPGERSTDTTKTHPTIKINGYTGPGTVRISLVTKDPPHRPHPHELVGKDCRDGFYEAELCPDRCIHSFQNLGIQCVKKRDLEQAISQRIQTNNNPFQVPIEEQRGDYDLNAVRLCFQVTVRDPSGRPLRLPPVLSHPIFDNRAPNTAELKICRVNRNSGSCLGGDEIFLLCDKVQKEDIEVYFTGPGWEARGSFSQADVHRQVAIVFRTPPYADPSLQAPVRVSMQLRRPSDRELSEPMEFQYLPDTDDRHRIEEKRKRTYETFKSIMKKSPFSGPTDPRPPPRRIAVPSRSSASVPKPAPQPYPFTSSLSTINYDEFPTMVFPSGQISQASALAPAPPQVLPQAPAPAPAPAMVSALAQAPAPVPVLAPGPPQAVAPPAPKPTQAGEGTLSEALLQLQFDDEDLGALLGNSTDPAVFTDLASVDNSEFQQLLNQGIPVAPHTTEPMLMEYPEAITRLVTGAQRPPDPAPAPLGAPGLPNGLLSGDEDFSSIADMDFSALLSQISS
Sequence of TPL2, Nluc- or YFP-tagged (BRET) (human) (P41279 whole entry): as the sequence (P41279 whole entry) above

“p50, Nluc- or YFP-tagged (BRET) (domain or fragment)” was tested. Which netBRET [1] did it give?
Its netBRET is greater than 0.05.

How did the netBRET [1] turn out when “p105, Nluc- or YFP-tagged (BRET) (from UniProt P19838 1-968) (natural protein)” was run?
Its netBRET is greater than 0.05.

Which netBRET [2] does the source give for “MSAD, YFP-tagged (BRET) (from UniProt P16287 1-202) (natural protein)” here?
The netBRET was 0.022 and 0.063.

Which results are given for “MTha, YFP-tagged (BRET) (natural protein)”?
netBRET [3]: > 0.05; netBRET [1]: 0.022 to 0.109

B1: ABIN2, Nluc- or YFP-tagged (BRET) (natural protein, human, UniProt Q8NFZ5-1 1-429, looked up)
chain: MSRDPGSGGWEEAPRAAAALCTLYHEAGQRLRRLQDQLAARDALIARLRARLAALEGDAAPSLVDALLEQVARFREQLRRQEGGAAEAQMRQEIERLTERLEEKEREMQQLLSQPQHEREKEVVLLRRSMAEGERARAASDVLCRSLANETHQLRRTLTATAHMCQHLAKCLDERQHAQRNVGERSPDQSEHTDGHTSVQSVIEKLQEENRLLKQKVTHVEDLNAKWQRYNASRDEYVRGLHAQLRGLQIPHEPELMRKEISRLNRQLEEKINDCAEVKQELAASRTARDAALERVQMLEQQILAYKDDFMSERADRERAQSRIQELEEKVASLLHQVSWRQDSREPDAGRIHAGSKTAKYLAADALELMVPGGWRPGTGSQQPEPPAEGGHPGAAQRGQGDLQCPHCLQCFSDEQGEELLRHVAECCQ
notes: also called TNIP2
How did the netBRET [4] turn out when B1 was run?
The netBRET was less than 0.05.

And the netBRET [5]?
The netBRET was 0.093.

B2: ABIN2, Glu1- or Glu2-tagged (PCA) (natural protein, human, UniProt Q8NFZ5-1 1-429, looked up)
chain: MSRDPGSGGWEEAPRAAAALCTLYHEAGQRLRRLQDQLAARDALIARLRARLAALEGDAAPSLVDALLEQVARFREQLRRQEGGAAEAQMRQEIERLTERLEEKEREMQQLLSQPQHEREKEVVLLRRSMAEGERARAASDVLCRSLANETHQLRRTLTATAHMCQHLAKCLDERQHAQRNVGERSPDQSEHTDGHTSVQSVIEKLQEENRLLKQKVTHVEDLNAKWQRYNASRDEYVRGLHAQLRGLQIPHEPELMRKEISRLNRQLEEKINDCAEVKQELAASRTARDAALERVQMLEQQILAYKDDFMSERADRERAQSRIQELEEKVASLLHQVSWRQDSREPDAGRIHAGSKTAKYLAADALELMVPGGWRPGTGSQQPEPPAEGGHPGAAQRGQGDLQCPHCLQCFSDEQGEELLRHVAECCQ
Which other [6] does the source give for B2 here?
The other was 0.86.

B3: MSAD, YFP-tagged (BRET) (natural protein)
chain: MNLLRKIVKNRRDEDTQKSSPASAPLDDDDLWLPPPEYVPLKELTGKKNMRNFCINGRVKVCSPNGYSFRILRHILKSFDEIYSGNHRMIGLVKVVIGLALSGSPVPEGLNWVYKLRRTFIFQWADSRGPLEGEELEYSQEITWDDDTEFVGLQIRVIAKQCHIQGRVWCINMNPRACQLWSDMSLQTQRSEEDKDSSLLLE
B3 was tested. Which netBRET [5] did it give?
The netBRET was greater than 0.05.
